Broadly, the EC50 (read off the curve) is the concentration at which the effect is half-maximal.

EC50 (read off the curve) data for 3 molecules are collected here from US20230250158A1.

To fix the notation:
B1: 22-E7 (antibody, V domains shown)
VH: QVQLVESGGGVVQPGTSLRLSCAASGFTFNNYPMFWVRQAPGKGLEWLALISYDGNHKVYADSVKGRFTISRDNAKNTLYLQMHSLRAEDTALYYCASDLSGAEDSWGQGTLVTVSS
VL: QSALTQPASVSGSPGQSITISCTGTSSDVGGYNYVSWYQQHPGKAPKLLIYEVSNRPSGVSNRFSGSKSGNTASLTISGLQAEDEADYYCSSYTSSSTWVFGGGTKLTVL
B2: 22-F7 (antibody, V domains shown)
VH: QVQLVESGGGVVQPGRSLRLSCAASGFSFTNYGMHWVRQAPGKGLEWVAVISYDGSIKYYEDSLKGRFTVSRDNSKKTLYLQMNSLRAEDTAVYYCTRERGTGIDYWGLGTLVTVSS
VL: QSALTQPASVSGYPGQSITLSCTGTKSDIGAYNYVSWYQQHPGKAPKLMVYDVSNRPSGLSNRFSGSKSDNTASLTISGLQAEDEAHYYCSSYTTSGTVVFGGGTKVTVL
B3: 2-A6 (antibody, V domains shown)
VH: QVTLRESGPALVKPTQTLTLTCTFSGFSLNTRGMSVSWIRQPPGKALEWLALIDWEDDKFYRTSLMTRLTISKDIFKNQVVLTMTNVDPVDTGTYYCARTYSVGVKYFGMDVWGQGTTVTVSS
VL: SSELTQDPAVSVALGQTVRITCQGDSLRNYYASWYRQEPGQAPILLIYGGNYRPSGIPDRFSGSSSGNTASLTITGAQAEDEADYYCNSRDSSGNHVVFGGGTKLTVL

The target in the experiment is SARS-CoV-2 Spike trimer (recombinant, wild type) (SARS-CoV-2), P0DTC2. Briefly: ELISA on plate-adsorbed recombinant Spike. To be noted: remark: other sources report otherwise.
For B1, the EC50 (read off the curve) is 0.02 mg/L. Regarding B2, the EC50 (read off the curve) turned out to be 0.01 mg/L. Under B3 stands 0.007 mg/L.
